Data set [1] relates to chymotrypsin. The conditions noted are these: cited from earlier work.
The target of data set [2] is T1, chymotrypsin (Bos taurus, UniProt P00766, DEL14-15/DEL147-148).
T1 construct: purchased Sigma C6423
Put plainly: T84 cGMP assay to assess guanylin activity after a chymotrypsin digestion assay (guanylin degradation assay). Format: biochemical, bovine. The conditions noted are these: T84 cells, FIG. 1. The protocol: Since guanylin is susceptible to digestion by chymotrypsin, chymotrypsin activity can be assayed based on guanylin cleavage. […] From this stock, six (6) 500 μl aliquots were prepared in 2 ml Eppendorf tubes and labeled “Control”, “T0”, “T15”, “T30”, “T60”, and “T180”, with “T_” representing timepoints, in minutes. 5 μl of a 10 mM chymostatin (Sigma, C7268) stock (5 mg of chymostatin resuspended in 824 μl of DMSO) was added to the “Control” samples and all samples were incubated for 5 minutes at 30° C. Chymostatin inhibits chymotrypsin activity and this sample served as a negative control. Next, 20 μl of a chymotrypsin (Sigma, C6423) enzyme solution (0.01 mg/ml bovine chymotrypsin enzyme in 1 mM HCl, 2 mM Calcium Chloride) were added to the samples and mixed by inversion. Samples are incubated at 30° C. […] Determination of sensitivity to digestion by chymotrypsin was determined by LCMS analysis and by in vitro activity in the T84 cGMP assays described below.
The ability of guanylin to activate the intestinal GC-C receptor was assessed in an assay employing the T84 human colon carcinoma cell line (American Type Culture Collection (Bethesda, Md.). For the assays cells were grown to confluency in 24-well culture plates with a 1:1 mixture of Ham's F12 medium and Dulbecco's modified Eagle's medium (DMEM), supplemented with 5% fetal calf serum and were used at between passages 54 and 60. […]

In data set [3] the test system is intestinal fluid secretion. Conditions: suckling mouse model; Santos-Neto et al 2003 Pharm & Toxicol 92:114; cited from earlier work.

Consider three molecules from US20090054319A1, “Methods and Compositions for the Treatment of Hypertension and Gastrointestinal Disorders” (MICROBIA, INC., priority 2005, published 2009).

Bridges are numbered along the chain shown (N, C = ends). Where no end group is shown, it is not given here.

With “bovine chymotrypsin enzyme (Sigma, C6423)”, the “guanylin degradation assay: loss of guanylin-stimulated cGMP activity and LC/MS of guanylin processing” value in the data set on Guanylin (Sigma, G-116) is “guanylin stimulated cGMP activity decreases over time in the presence of chymotrypsin”.
For “guanylin: intestinal peptide that stimulates chloride secretion; mature protein has 15 amino acids; agonist of the GC-C receptor (PGTCEICAYAACTGC; disulfide 4-12, 7-15; UniProt Q02747 101-115, looked up)”, the “cleavage of guanylin by chymotrypsin” value with chymotrypsin [1] (Greenberg et al. J Investig Med 45:276-82, 1997) is reported as “chymotrypsin can cleave guanylin”. Besides, in the data set with chymotrypsin [2] (in the presence of chymotrypsin, timepoints 0-180 min at 30° C.), the “guanylin stimulated cGMP activity” value is “decreases over time”.
Take `CC(C)C[C@H](NC(=O)[C@@H](NC(=O)N[C@@H](Cc1ccccc1)C(=O)O)C1CCNC(=N)N1)C(=O)N[C@H](C=O)Cc1ccccc1` (stereo partly drawn) [chymostatin, N—(Na-Carbonyl-[S,S]-a-(2-Iminohexahydro-4-pyrimidyl)glycine)-X-Phe-al)-Phe where X is Leu, Val or Ile]: the “chymotrypsin-mediated inactivation of guanylin” value in the data set with chymotrypsin [1] is “can be prevented”. In addition, the “guanylin-induced intestinal fluid secretion” value in data set [3] is given as “required in order to observe guanylin-induced intestinal fluid secretion”. In addition, the “guanylin stimulated cGMP activity when chymotrypsin inhibitor present” value on chymotrypsin [2] (chymostatin present during chymotrypsin digestion of guanylin) is given as “retained”.
